From patent US20150361184

Target: T1, Flag-tagged kinase dead murine DLK S302A, not phosphorylated at T43, S272 and S533
T1 chain: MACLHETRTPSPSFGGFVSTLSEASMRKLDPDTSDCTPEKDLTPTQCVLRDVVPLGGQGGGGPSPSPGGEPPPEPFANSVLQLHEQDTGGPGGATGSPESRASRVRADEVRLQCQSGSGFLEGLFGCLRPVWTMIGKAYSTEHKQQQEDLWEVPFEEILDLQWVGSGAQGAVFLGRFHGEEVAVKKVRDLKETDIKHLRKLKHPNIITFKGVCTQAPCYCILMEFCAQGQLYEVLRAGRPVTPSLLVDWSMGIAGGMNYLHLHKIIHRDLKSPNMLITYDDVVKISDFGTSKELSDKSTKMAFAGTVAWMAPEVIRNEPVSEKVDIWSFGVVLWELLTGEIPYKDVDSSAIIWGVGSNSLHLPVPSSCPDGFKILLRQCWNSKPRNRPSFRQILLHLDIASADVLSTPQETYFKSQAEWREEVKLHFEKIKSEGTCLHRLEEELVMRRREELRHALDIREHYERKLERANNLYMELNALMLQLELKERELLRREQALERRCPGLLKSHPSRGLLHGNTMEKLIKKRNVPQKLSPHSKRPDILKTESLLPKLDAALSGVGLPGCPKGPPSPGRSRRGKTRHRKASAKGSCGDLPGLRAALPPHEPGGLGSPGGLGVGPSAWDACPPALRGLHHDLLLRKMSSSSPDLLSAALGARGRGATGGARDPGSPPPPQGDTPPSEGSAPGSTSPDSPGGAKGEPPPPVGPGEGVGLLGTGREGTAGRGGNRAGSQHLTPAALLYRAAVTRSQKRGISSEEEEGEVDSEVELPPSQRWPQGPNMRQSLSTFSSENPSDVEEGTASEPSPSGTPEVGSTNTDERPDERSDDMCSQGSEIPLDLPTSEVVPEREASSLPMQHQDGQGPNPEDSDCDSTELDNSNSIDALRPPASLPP

B1: GST-tagged human recombinant JNK3 (Millipore) (protein)
chain: MSLHFLYYCSEPTLDVKIAFCQGFDKQVDVSYIAKHYNMSKSKVDNQFYSVEVGDSTFTVLKRYQNLKPIGSGAQGIVCAAYDAVLDRNVAIKKLSRPFQNQTHAKRAYRELVLMKCVNHKNIISLLNVFTPQKTLEEFQDVYLVMELMDANLCQVIQMELDHERMSYLLYQMLCGIKHLHSAGIIHRDLKPSNIVVKSDCTLKILDFGLARTAGTSFMMTPYVVTRYYRAPEVILGMGYKENVDIWSVGCIMGEMVRHKILFPGRDYIDQWNKVIEQLGTPCPEFMKKLQPTVRNYVENRPKYAGLTFPKLFPDSLFPADSEHNKLKASQARDLLSKMLVIDPAKRISVDDALQHPYINVWYDPAEVEAPPPQIYDKQLDEREHTIEEWKELIYKEVMNSEEKTKNGVVKGQPSPSGAAVNSSESLPPSSSVNDISSMSTDQTLASDTDSSLEASAGPLGCCR
- in vitro kinase assay; phosphorylation of T43 and S533 read by blotting with phospho-specific antibodies: both T43 and S533 can be phosphorylated directly by JNK
